Reference: paper doi:10.1101/2021.04.13.439572
Each block holds one substance with its values, some of them ahead of it.

What was measured:
Test in all cases: fluorescence polarisation
[1] = biological target: KPNB1 HEAT, tag cleaved, for affinity measurements
[2] = biological target: 14-3-3 protein sigma (14-3-3 SFN), tag cleaved, for affinity measurements
[3] = biological target: KPNA4 ARM, MBP-tagged, for affinity measurements
[4] = biological target: MDM2 SWIB, cleaved from the His-GST tag, for affinity measurements
[5] = biological target: TLN1 PTB, tag cleaved, for affinity measurements

Substance: KPNA2_(514-529) C-terminal synthetic peptide (from UniProt P52292 514-529)
- Ki [1]: 1 mM

Substance: NKX2-5_(192-207) K194R synthetic peptide (from UniProt P52952 192-207)
- fold loss of affinity against wild-type NKX2-5 (192-207) [3]: 10 fold

Substance: NUMB_(615-630) synthetic peptide (from UniProt P49757 615-630)
- Ki [4]: 3300 nM

Substance: RNF115_(69-84) synthetic peptide (from UniProt Q9Y4L5 69-84)
- Ki [4]: 170 nM

Other lines, results leading:

- Ki [2]: 355 µM
Substance: MAP1A_(1836-1851) synthetic peptide

- Ki [5]: 500 µM
Substance: integrin beta-3 ITB3_(763-778) synthetic peptide
